The values below come from the Immune Epitope Database (IEDB).

Some targets named below: HLA-A*02:06; HLA-A*02:02; HLA-A*68:02; HLA-A*02:01; HLA-A*02:03.
Holding throughout (assay): IEDB peptide-MHC binding, purified MHC/competitive/radioactivity; ≥ and ≤ were set here for values at or beyond the usual limits of such assays
The mark [1] stands for this setting: source organism: Vaccinia virus WR.
The mark [2] stands for this setting: source organism: Hepacivirus hominis.
Setting [3] is: source organism: Mammarenavirus guanaritoense.

For the sequence VLIAGIILLI, the IC50 (usually the concentration that gives 50% inhibition) with HLA-A*02:06 (setting [1]) is 1.02 µM; in the experiment with HLA-A*02:02 (setting [1]) it was 0.0088 µM; with HLA-A*68:02 (setting [1]), 0.033 µM; with HLA-A*02:01 (setting [1]) it was 0.089 µM; with HLA-A*02:03 (setting [1]), 0.035 µM.
In the case of LATLNTLITL, the IC50 was 0.323 µM with HLA-A*02:06 (setting [1]); 0.139 µM with HLA-A*02:02 (setting [1]); 1.04 µM in the experiment with HLA-A*68:02 (setting [1]); 0.848 µM with HLA-A*02:01 (setting [1]); 0.338 µM with HLA-A*02:03 (setting [1]).
As to TVPTNDHIPV, the IC50 is 0.515 µM in the experiment with HLA-A*02:06 (setting [1]); 1.68 µM with HLA-A*02:02 (setting [1]); 0.057 µM with HLA-A*68:02 (setting [1]); 1.67 µM with HLA-A*02:01 (setting [1]); 1.89 µM with HLA-A*02:03 (setting [1]).
For the sequence NTIAVITETI, the IC50 in the experiment with HLA-A*02:06 (setting [1]) stood at 0.784 µM; with HLA-A*02:02 (setting [1]), 0.05 µM; with HLA-A*68:02 (setting [1]), 0.0021 µM; with HLA-A*02:01 (setting [1]), 0.108 µM; in the experiment with HLA-A*02:03 (setting [1]) it was 0.056 µM.
Take RLLAPITAYA: the IC50 was determined as 0.103 µM in the experiment with HLA-A*02:06 (setting [2]); 0.0052 µM with HLA-A*02:02 (setting [2]); 0.094 µM with HLA-A*68:02 (setting [2]); 0.029 µM in the experiment with HLA-A*02:01 (setting [2]); 0.025 µM with HLA-A*02:03 (setting [2]).
With IAGGVCYYL, the IC50 with HLA-A*02:06 (setting [1]) amounted to 1.41 µM; with HLA-A*02:02 (setting [1]), 0.053 µM; with HLA-A*68:02 (setting [1]) it was 0.394 µM; with HLA-A*02:01 (setting [1]), 1.93 µM; in the experiment with HLA-A*02:03 (setting [1]), 1.68 µM.
As for TIKESLLKET, the IC50 was 0.087 µM with HLA-A*02:06 (setting [1]); 1.58 µM in the experiment with HLA-A*02:02 (setting [1]); 0.296 µM with HLA-A*68:02 (setting [1]); 0.085 µM in the experiment with HLA-A*02:01 (setting [1]); 0.149 µM with HLA-A*02:03 (setting [1]).
The matching figures for RAAIDRQVSV: 0.212 µM, 0.626 µM, 0.054 µM, 0.554 µM and 0.041 µM.
On to IISSKQYPA, for which the IC50 in the experiment with HLA-A*02:06 (setting [1]) is 1.16 µM; with HLA-A*02:02 (setting [1]) it was 0.164 µM; with HLA-A*68:02 (setting [1]), 3.58 µM; with HLA-A*02:01 (setting [1]), 0.41 µM; in the experiment with HLA-A*02:03 (setting [1]) it was 0.612 µM.
As to YLGPRVCWL, the IC50 in the experiment with HLA-A*02:06 (setting [1]) stood at 0.023 µM; with HLA-A*02:02 (setting [1]) it was 0.0009 µM; with HLA-A*68:02 (setting [1]), 0.514 µM; in the experiment with HLA-A*02:01 (setting [1]), 0.0022 µM; in the experiment with HLA-A*02:03 (setting [1]), 0.0034 µM.
Regarding RIYCSLFKNV, the IC50 with HLA-A*02:06 (setting [1]) turned out to be 0.0071 µM; with HLA-A*02:02 (setting [1]) it was 0.913 µM; with HLA-A*68:02 (setting [1]), 0.549 µM; with HLA-A*02:01 (setting [1]), 0.062 µM; in the experiment with HLA-A*02:03 (setting [1]), 0.03 µM.
YMLFTKFFYL: the IC50 in the experiment with HLA-A*02:06 (source organism: SARS-CoV1) stood at 0.02 µM; in the experiment with HLA-A*02:02 (source organism: SARS-CoV1), 0.048 µM; with HLA-A*68:02 (source organism: SARS-CoV1) it was 0.0099 µM; in the experiment with HLA-A*02:01 (source organism: SARS-CoV1) it was 0.0051 µM; with HLA-A*02:03 (source organism: SARS-CoV1) it was 0.046 µM.
On to YQSFLFWFL, for which the IC50 with HLA-A*02:06 (setting [1]) was found to be 0.04 µM; with HLA-A*02:02 (setting [1]) it was 0.00038 µM; with HLA-A*68:02 (setting [1]) it was 0.087 µM; with HLA-A*02:01 (setting [1]), 0.00076 µM; in the experiment with HLA-A*02:03 (setting [1]), 0.0025 µM.
As to SLMAFTASI, the IC50 was 0.743 µM in the experiment with HLA-A*02:06 (setting [2]); 0.019 µM in the experiment with HLA-A*02:02 (setting [2]); 0.284 µM in the experiment with HLA-A*68:02 (setting [2]); 0.106 µM with HLA-A*02:01 (setting [2]); 0.04 µM with HLA-A*02:03 (setting [2]).
With DIISSKQYPA, the IC50 with HLA-A*02:06 (setting [1]) came out at 3.1 µM; with HLA-A*02:02 (setting [1]), 0.552 µM; in the experiment with HLA-A*68:02 (setting [1]) it was 0.22 µM; with HLA-A*02:01 (setting [1]), 2.89 µM; with HLA-A*02:03 (setting [1]), 2.43 µM.
Turning to TSVDLNAPV, the IC50 with HLA-A*02:06 (setting [3]) was found to be 0.026 µM; in the experiment with HLA-A*02:02 (setting [3]), 0.065 µM; with HLA-A*68:02 (setting [3]), 0.00026 µM; in the experiment with HLA-A*02:01 (setting [3]), 0.464 µM; with HLA-A*02:03 (setting [3]) it was 0.841 µM.
TVQEFIFSAL: the IC50 is 0.044 µM in the experiment with HLA-A*02:06 (setting [1]); 0.081 µM with HLA-A*02:02 (setting [1]); 0.0078 µM with HLA-A*68:02 (setting [1]); 0.321 µM in the experiment with HLA-A*02:01 (setting [1]); 0.09 µM with HLA-A*02:03 (setting [1]).
RVSENTGMGM: the IC50 with HLA-A*02:06 (setting [1]) was found to be 0.146 µM; in the experiment with HLA-A*02:02 (setting [1]) it was 0.839 µM; with HLA-A*68:02 (setting [1]), 0.066 µM; with HLA-A*02:01 (setting [1]), 0.766 µM; with HLA-A*02:03 (setting [1]), 0.089 µM.
On to ALLFLMSFTI, for which the IC50 in the experiment with HLA-A*02:06 (source organism: SARS-CoV1) turned out to be 0.014 µM; in the experiment with HLA-A*02:02 (source organism: SARS-CoV1) it was 0.00037 µM; with HLA-A*68:02 (source organism: SARS-CoV1), 1.77 µM; with HLA-A*02:01 (source organism: SARS-CoV1), 0.0016 µM; with HLA-A*02:03 (source organism: SARS-CoV1), 0.199 µM.
For the sequence IIMAINVFT, the IC50 stood at 0.01 µM with HLA-A*02:06 (setting [1]); 0.039 µM with HLA-A*02:02 (setting [1]); 0.084 µM with HLA-A*68:02 (setting [1]); 0.027 µM in the experiment with HLA-A*02:01 (setting [1]); 0.18 µM with HLA-A*02:03 (setting [1]).
For VIADYNYKL, the IC50 in the experiment with HLA-A*02:06 (source organism: SARS-CoV1) stood at 0.069 µM; with HLA-A*02:02 (source organism: SARS-CoV1) it was 0.00048 µM; in the experiment with HLA-A*68:02 (source organism: SARS-CoV1) it was 0.29 µM; in the experiment with HLA-A*02:01 (source organism: SARS-CoV1) it was 0.024 µM; in the experiment with HLA-A*02:03 (source organism: SARS-CoV1), 0.115 µM.
Turning to MLLNVQTLI, the 50% inhibitory concentration (IC50) with HLA-A*02:06 (setting [1]) was 0.00022 µM; with HLA-A*02:02 (setting [1]), 0.00017 µM; with HLA-A*68:02 (setting [1]), 0.216 µM; in the experiment with HLA-A*02:01 (setting [1]) it was 0.0029 µM; with HLA-A*02:03 (setting [1]), 0.00025 µM.
The matching figures for NVIEDITFL: 0.026 µM, 0.146 µM, 0.031 µM, 0.304 µM and 0.3 µM.
